# Assay results: paper PMC10937788 (Plant Molecular Biology, 2024)
# B1: SyArgG (Synechocystis sp. PCC 6803 substr. Kazusa) (protein)
# chain: MGRAKKVVLAYSGGVDTSVCIPYLMHEWGVEEVITLAADLGQGDELGPIQEKALRCGAVESLVIDGKEEFVKEYAFRSIQANALYENRYPLSTALARPLIAKMLVEAAEKYGADAVAHGCTGKGNDQVRFDISIMALNPNLKVLAPAREWKMSREETIAYGERYGVESPVKKSSPYSIDRNILGRSIEAGPLEDPMTEPTEEIYLMTKAIADTPDEPEYVDIGFEKGIPVSLNGVMLDPVTLVERLNEIAGNHGVGRLDMVENRVVGIKSREIYEAPALLVLIDAHRDLESLTQTADVTHYKNTVEEIYSQLIYRGLWYSPLKEALDAFIVKTQERVTGMVRVKFFKGNANVAGRKSDYSIYDAELATYGMEDQFDHKAAEGFIYIWGLPTKVWAQKMRG
# notes: synthetic ORF in pGEX-6P-1 (BamHI-XhoI); GST-tagged, tag kept (eluted with glutathione, no cleavage described); expressed in E. coli BL21(DE3)
# Legend:
# SyArgG = target: T1, SyArgG (Synechocystis sp. PCC 6803, UniProt P77973); assay: coupled NADH oxidation assay (myokinase, pyruvate kinase, lactate dehydrogenase), […] nm; type: biochemical; settings: read-out: % residual activity at 5 mM
# T1 construct: gene argG; synthetic ORF in pGEX-6P-1 (BamHI-XhoI); GST-tagged, tag kept (eluted with glutathione, no cleavage described); expressed in E. coli BL21(DE3)
# T1 sequence (P77973 1-400): B1 chain
# purified protein [1] = substrate: Nc1ncnc2c1ncn2[C@@H]1O[C@H](COP(=O)(O)OP(=O)(O)OP(=O)(O)O)[C@@H](O)[C@H]1O; assay: purified protein; type: biochemical, Synechocystis sp. PCC 6803; settings: 38 °C, pH 9.0 Tris-HCl, 5 mM MgCl2, 2 mM KCl, co-substrates 7.5 mM citrulline, 7.5 mM aspartate
# purified protein [2] = substrate: NC(=O)NCCC[C@H](N)C(=O)O; assay: purified protein; type: biochemical, Synechocystis sp. PCC 6803; settings: 38 °C, pH 9.0 Tris-HCl, 5 mM MgCl2, 2 mM KCl, co-substrates 7.5 mM aspartate, 1 mM ATP
# purified protein [3] = substrate: N[C@@H](CC(=O)O)C(=O)O; assay: purified protein; settings: 38 °C, pH 9.0 Tris-HCl, 5 mM MgCl2, 2 mM KCl, co-substrates 7.5 mM citrulline, 1 mM ATP
molecule,measurement,setting,value
O=C(O)CCC(=O)O [succinate],remaining activity at 5000 µM,SyArgG,92.1%
N=C(N)NCCC[C@H](N)C(=O)O [arginine],remaining activity at 5000 µM,SyArgG,18.4%
NCCC[C@H](N)C(=O)O [ornithine],remaining activity at 5000 µM,SyArgG,80.1%
NCCCC[C@H](N)C(=O)O [lysin],remaining activity at 5000 µM,SyArgG,78.1%
B1,Km,purified protein [1],260 ± 10 µM
same,kcat,purified protein [1],0.7 ± 0.002 s⁻¹
same,kcat/Km,purified protein [1],2750 ± 120 M⁻¹ s⁻¹
same,Km,purified protein [2],350 ± 10 µM
same,kcat,purified protein [2],0.69 ± 0.01 s⁻¹
same,kcat/Km,purified protein [2],1970 ± 50 M⁻¹ s⁻¹
same,Km,purified protein [3],360 ± 40 µM
same,kcat,purified protein [3],0.77 s⁻¹
same,kcat/Km,purified protein [3],2160 M⁻¹ s⁻¹
